Positions of bridges follow the written chain, without caps; N, C: chain ends. Non-standard residues stand in square brackets, D forms with d. Hyp = O=C(O)[C@@H]1C[C@@H](O)CN1; Pen = CC(C)(S)[C@H](N)C(=O)O; Orn = NCCC[C@H](N)C(=O)O; Thz = O=C(O)[C@@H]1CSCN1; Dab = NCC[C@H](N)C(=O)O; Aib = CC(C)(N)C(=O)O
B1: Chem. 120 (peptide)
peptide: cyclo(C[Thz]H[dF]HWCAHE[Orn]R)
modifications: disulfide 1-7
SMILES: C[C@@H]1NC(=O)[C@@H]2CSSC[C@H](NC(=O)[C@H](CCCNC(=N)N)NC(=O)[C@H](CCCN)NC(=O)[C@H](CCC(=O)O)NC(=O)[C@H](Cc3c[nH]cn3)NC1=O)C(=O)N1CSC[C@H]1C(=O)N[C@@H](Cc1c[nH]cn1)C(=O)N[C@H](Cc1ccccc1)C(=O)N[C@@H](Cc1c[nH]cn1)C(=O)N[C@@H](Cc1c[nH]c3ccccc13)C(=O)N2
B2: Chem. 117 (peptide)
peptide: cyclo(C[Thz]H[dF]HW[Pen]KKAAW)
modifications: disulfide 1-7
SMILES: C[C@@H]1NC(=O)[C@H](C)NC(=O)[C@H](CCCCN)NC(=O)[C@H](CCCCN)NC(=O)[C@H]2NC(=O)[C@H](Cc3c[nH]c4ccccc34)NC(=O)[C@H](Cc3c[nH]cn3)NC(=O)[C@@H](Cc3ccccc3)NC(=O)[C@H](Cc3c[nH]cn3)NC(=O)[C@@H]3CSCN3C(=O)[C@H](CSSC2(C)C)NC(=O)[C@H](Cc2c[nH]c3ccccc23)NC1=O
B3: Chem. 121 (peptide)
peptide: cyclo(CPH[dF]HWCAH[dK][dK]R)
modifications: disulfide 1-7
SMILES: C[C@@H]1NC(=O)[C@@H]2CSSC[C@H](NC(=O)[C@H](CCCNC(=N)N)NC(=O)[C@@H](CCCCN)NC(=O)[C@@H](CCCCN)NC(=O)[C@H](Cc3c[nH]cn3)NC1=O)C(=O)N1CCC[C@H]1C(=O)N[C@@H](Cc1c[nH]cn1)C(=O)N[C@H](Cc1ccccc1)C(=O)N[C@@H](Cc1c[nH]cn1)C(=O)N[C@@H](Cc1c[nH]c3ccccc13)C(=O)N2
B4: Chem. 115 (peptide)
peptide: cyclo(C[Thz]H[dF]HWCK[Orn]AAW)
modifications: disulfide 1-7
SMILES: C[C@@H]1NC(=O)[C@H](C)NC(=O)[C@H](CCCN)NC(=O)[C@H](CCCCN)NC(=O)[C@@H]2CSSC[C@H](NC(=O)[C@H](Cc3c[nH]c4ccccc34)NC1=O)C(=O)N1CSC[C@H]1C(=O)N[C@@H](Cc1c[nH]cn1)C(=O)N[C@H](Cc1ccccc1)C(=O)N[C@@H](Cc1c[nH]cn1)C(=O)N[C@@H](Cc1c[nH]c3ccccc13)C(=O)N2
B5: Chem. 119 (peptide)
peptide: cyclo(C[Thz]H[dF]HWCA[Orn]E[Orn]R)
modifications: disulfide 1-7
SMILES: C[C@@H]1NC(=O)[C@@H]2CSSC[C@H](NC(=O)[C@H](CCCNC(=N)N)NC(=O)[C@H](CCCN)NC(=O)[C@H](CCC(=O)O)NC(=O)[C@H](CCCN)NC1=O)C(=O)N1CSC[C@H]1C(=O)N[C@@H](Cc1c[nH]cn1)C(=O)N[C@H](Cc1ccccc1)C(=O)N[C@@H](Cc1c[nH]cn1)C(=O)N[C@@H](Cc1c[nH]c3ccccc13)C(=O)N2
B6: Chem. 113 (peptide)
peptide: cyclo(C[Thz]H[dF]HWCARERR)
modifications: disulfide 1-7
SMILES: C[C@@H]1NC(=O)[C@@H]2CSSC[C@H](NC(=O)[C@H](CCCNC(=N)N)NC(=O)[C@H](CCCNC(=N)N)NC(=O)[C@H](CCC(=O)O)NC(=O)[C@H](CCCNC(=N)N)NC1=O)C(=O)N1CSC[C@H]1C(=O)N[C@@H](Cc1c[nH]cn1)C(=O)N[C@H](Cc1ccccc1)C(=O)N[C@@H](Cc1c[nH]cn1)C(=O)N[C@@H](Cc1c[nH]c3ccccc13)C(=O)N2
B7: Chem. 116 (peptide)
peptide: cyclo(C[Thz]H[dF]HWC[Orn][Orn]AAW)
modifications: disulfide 1-7
SMILES: C[C@@H]1NC(=O)[C@H](C)NC(=O)[C@H](CCCN)NC(=O)[C@H](CCCN)NC(=O)[C@@H]2CSSC[C@H](NC(=O)[C@H](Cc3c[nH]c4ccccc34)NC1=O)C(=O)N1CSC[C@H]1C(=O)N[C@@H](Cc1c[nH]cn1)C(=O)N[C@H](Cc1ccccc1)C(=O)N[C@@H](Cc1c[nH]cn1)C(=O)N[C@@H](Cc1c[nH]c3ccccc13)C(=O)N2
B8: Chem. 118 (peptide)
peptide: cyclo(C[Thz]H[dF]HWCKR)
modifications: disulfide 1-7
SMILES: N=C(N)NCCC[C@@H]1NC(=O)[C@H](CCCCN)NC(=O)[C@@H]2CSSC[C@H](NC1=O)C(=O)N1CSC[C@H]1C(=O)N[C@@H](Cc1c[nH]cn1)C(=O)N[C@H](Cc1ccccc1)C(=O)N[C@@H](Cc1c[nH]cn1)C(=O)N[C@@H](Cc1c[nH]c3ccccc13)C(=O)N2
B9: Chem. 114 (peptide)
peptide: cyclo(C[Thz]H[dF]HWCKA[dK]AW)
modifications: disulfide 1-7
SMILES: C[C@@H]1NC(=O)[C@H](CCCCN)NC(=O)[C@@H]2CSSC[C@H](NC(=O)[C@H](Cc3c[nH]c4ccccc34)NC(=O)[C@H](C)NC(=O)[C@@H](CCCCN)NC1=O)C(=O)N1CSC[C@H]1C(=O)N[C@@H](Cc1c[nH]cn1)C(=O)N[C@H](Cc1ccccc1)C(=O)N[C@@H](Cc1c[nH]cn1)C(=O)N[C@@H](Cc1c[nH]c3ccccc13)C(=O)N2
B10: Chem. 33 (peptide)
peptide: cyclo(C[dP]H[dF]RWC[dP]H[dF]RW)
modifications: disulfide 1-7
SMILES: N=C(N)NCCC[C@@H]1NC(=O)[C@@H](Cc2ccccc2)NC(=O)[C@H](Cc2c[nH]cn2)NC(=O)[C@H]2CCCN2C(=O)[C@@H]2CSSC[C@H](NC(=O)[C@H](Cc3c[nH]c4ccccc34)NC1=O)C(=O)N1CCC[C@@H]1C(=O)N[C@@H](Cc1c[nH]cn1)C(=O)N[C@H](Cc1ccccc1)C(=O)N[C@@H](CCCNC(=N)N)C(=O)N[C@@H](Cc1c[nH]c3ccccc13)C(=O)N2
B11: Chem. 21 (peptide)
peptide: CAHFXWCAHFXW
modifications: D-Phe 4, 10; Arg(NO2) 5, 11; disulphide Cys1-Cys7; head-to-tail amide Cys1-Trp12
B12: Chem. 41 (peptide)
peptide: CXHFXWCXHFXW
modifications: Aib 2, 8; D-Phe 4, 10; Cit 5, 11; disulphide Cys1-Cys7; head-to-tail amide Cys1-Trp12
B13: Chem. 86 (peptide)
peptide: cyclo(C[dK]H[dF]HWC[dK]H[dF]HW)
modifications: disulfide 1-7
SMILES: NCCCC[C@H]1NC(=O)[C@@H]2CSSC[C@H](NC(=O)[C@H](Cc3c[nH]c4ccccc34)NC(=O)[C@H](Cc3c[nH]cn3)NC(=O)[C@@H](Cc3ccccc3)NC(=O)[C@H](Cc3c[nH]cn3)NC1=O)C(=O)N[C@H](CCCCN)C(=O)N[C@@H](Cc1c[nH]cn1)C(=O)N[C@H](Cc1ccccc1)C(=O)N[C@@H](Cc1c[nH]cn1)C(=O)N[C@@H](Cc1c[nH]c3ccccc13)C(=O)N2
B14: Chem. 38 (peptide)
peptide: cyclo(C[Aib][Hyp][dF]RWC[Aib][Hyp][dF]RW)
modifications: disulfide 1-7
SMILES: CC1(C)NC(=O)[C@@H]2CSSC[C@H](NC(=O)[C@H](Cc3c[nH]c4ccccc34)NC(=O)[C@H](CCCNC(=N)N)NC(=O)[C@@H](Cc3ccccc3)NC(=O)[C@@H]3C[C@@H](O)CN3C1=O)C(=O)NC(C)(C)C(=O)N1C[C@H](O)C[C@H]1C(=O)N[C@H](Cc1ccccc1)C(=O)N[C@@H](CCCNC(=N)N)C(=O)N[C@@H](Cc1c[nH]c3ccccc13)C(=O)N2
B15: Chem. 34 (peptide)
peptide: cyclo(C[dV]H[dF]RWC[dV]H[dF]RW)
modifications: disulfide 1-7
SMILES: CC(C)[C@H]1NC(=O)[C@@H]2CSSC[C@H](NC(=O)[C@H](Cc3c[nH]c4ccccc34)NC(=O)[C@H](CCCNC(=N)N)NC(=O)[C@@H](Cc3ccccc3)NC(=O)[C@H](Cc3c[nH]cn3)NC1=O)C(=O)N[C@H](C(C)C)C(=O)N[C@@H](Cc1c[nH]cn1)C(=O)N[C@H](Cc1ccccc1)C(=O)N[C@@H](CCCNC(=N)N)C(=O)N[C@@H](Cc1c[nH]c3ccccc13)C(=O)N2
B16: Chem. 43 (peptide)
peptide: CXHFXWCXHFXW
modifications: Aib 2, 8; D-Phe 4, 10; AGP 5, 11; disulphide Cys1-Cys7; head-to-tail amide Cys1-Trp12
B17: Chem. 6 (peptide)
peptide: cyclo(CH[dF]RW[dA]CH[dF]RW[dA])
modifications: disulfide 1-7
SMILES: C[C@H]1NC(=O)[C@H](Cc2c[nH]c3ccccc23)NC(=O)[C@H](CCCNC(=N)N)NC(=O)[C@@H](Cc2ccccc2)NC(=O)[C@H](Cc2c[nH]cn2)NC(=O)[C@@H]2CSSC[C@H](NC1=O)C(=O)N[C@@H](Cc1c[nH]cn1)C(=O)N[C@H](Cc1ccccc1)C(=O)N[C@@H](CCCNC(=N)N)C(=O)N[C@@H](Cc1c[nH]c3ccccc13)C(=O)N[C@H](C)C(=O)N2
B18: Chem. 46 (peptide)
peptide: cyclo(C[Aib]H[dF][Dab]WC[Aib]H[dF][Dab]W)
modifications: disulfide 1-7
SMILES: CC1(C)NC(=O)[C@@H]2CSSC[C@H](NC(=O)[C@H](Cc3c[nH]c4ccccc34)NC(=O)[C@H](CCN)NC(=O)[C@@H](Cc3ccccc3)NC(=O)[C@H](Cc3c[nH]cn3)NC1=O)C(=O)NC(C)(C)C(=O)N[C@@H](Cc1c[nH]cn1)C(=O)N[C@H](Cc1ccccc1)C(=O)N[C@@H](CCN)C(=O)N[C@@H](Cc1c[nH]c3ccccc13)C(=O)N2

Each binder was assayed against human melanocortin 4 receptor (human, UniProt P32245 1-332) (assay: cell-based or functional assay).
Sequence of human melanocortin 4 receptor (P32245 whole entry): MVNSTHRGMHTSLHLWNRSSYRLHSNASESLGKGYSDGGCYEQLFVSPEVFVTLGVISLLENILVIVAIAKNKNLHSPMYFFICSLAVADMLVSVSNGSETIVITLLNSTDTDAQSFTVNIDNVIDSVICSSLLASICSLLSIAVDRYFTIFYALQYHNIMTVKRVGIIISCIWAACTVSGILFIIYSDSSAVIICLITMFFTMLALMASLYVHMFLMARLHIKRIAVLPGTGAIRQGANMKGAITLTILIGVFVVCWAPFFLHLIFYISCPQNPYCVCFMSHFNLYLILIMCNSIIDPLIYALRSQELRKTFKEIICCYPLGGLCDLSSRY

Binder	MC4R cAMP EC50
B1	0.08 nM
B2	0.2 nM
B3	0.24 nM
B4	0.1 nM
B5	0.06 nM
B6	0.02 nM
B7	0.12 nM
B8	3.53 nM
B9	0.04 nM

These binders were tested against human melanocortin 1 receptor (human, UniProt Q01726 1-317) (assay: cell-based or functional assay).
Sequence of human melanocortin 1 receptor (Q01726 whole entry): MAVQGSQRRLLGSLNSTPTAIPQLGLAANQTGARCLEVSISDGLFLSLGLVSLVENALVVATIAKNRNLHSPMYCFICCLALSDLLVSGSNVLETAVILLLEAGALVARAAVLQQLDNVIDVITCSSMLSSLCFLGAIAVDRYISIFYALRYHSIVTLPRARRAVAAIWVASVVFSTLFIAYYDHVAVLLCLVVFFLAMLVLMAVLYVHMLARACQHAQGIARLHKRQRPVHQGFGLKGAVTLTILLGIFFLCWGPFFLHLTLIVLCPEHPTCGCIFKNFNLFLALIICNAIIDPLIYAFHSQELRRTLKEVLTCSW

Binder	MC1R cAMP EC50
B10	> 1 nM
B11	> 4 nM
B1	294 nM
B2	168 nM
B12	137 nM
B3	189 nM
B13	147 nM
B4	134 nM
B5	99.6 nM
B14	> 3.7 nM
B15	2.6 nM
B6	42.2 nM
B7	231 nM
B16	46.9 nM
B8	4380 nM
B17	2.35 nM
B9	114 nM
B18	> 5.5 nM

Reference: US20200223889A1 (Novo Nordisk, published 2020)
